According to paper PMC11238091:

Key:
[1] = target: S1-STMND1 (human STMND1 lacking the first seven amino acids, amino acids 8-276), His6-tagged (human) (UniProt H3BQB6); assay: BLI
[2] = target: STMND1-SLD (stathmin-like domain of human STMND1, amino acids 118-276), His6-tagged (human) (UniProt H3BQB6); assay: BLI

**Q.** What does the source list for “Bovine brain tubulin (αβ-tubulin heterodimer) (from UniProt Q6B856 1-445) (complex)”?
**A.** Kd [1]: 400 nM; Kd [2]: 600 nM
